Measured values as given in the supplement of paper PMC6755084.

B1: minF1; a variant is named by its letters at N, in order (parent)
chain: GAGACCGCAACTGAAAAGTTGTTNNNNAANNNNNGGNTNAATTTCTGCACGTAGAAGCAAAAGGC

Variants of: B1
Assay: fraction ligated after 30 min (ligated reads / total reads); higher = more ligase activity
Details: with F1*subA RNA substrate (template-directed ligation), 42 °C
In short: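 Using barcoded primers for reverse transcription and a MiSeq for sequencing, gel-separated ligated and unligated RNAs of minimized ligase ribozyme variants were read, with core-base filtering at quality ≥30. Fraction ligated per variant was defined as ligated reads over total reads.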

Variant | fraction ligated
GAGACCGCAACTGAAAAGTTGTTTCAGAAATGGATGGTTGATTTCTGCACGTAGAAGCAAAAGGC [TCAGATGGAGT G35T A40G] | 0.0226
GAGACCGCAACTGAAAAGTTGTTACAGAAATGGATGGTTAATTTCTGCACGTAGAAGCAAAAGGC [ACAGATGGAGT G35T] | 0.014
GAGACCGCAACTGAAAAGTTGTATCAAAATGGATGGGTTGATTTCTGCACGTAGAAGCAAAAGGC [TCAATGGATGT T23A A40G] | 0.00963
GAGACCGCAACTGAAAAGTTGTTTCAGAAAGGATGGTTGAATTTCTGCACGTAGAAGCAAAAGGC [TCAGAGGATTG] | 0.00228
GAGACCGCAACTGAAAAGTTGTTACAGAAAGATGGGTTGAATTTCTGCACGTAGAAGCAAAAGGC [ACAGAGATGTG] | 0.0018
GAGACCGCAACTGAAAAGTTGTACAGAAATGGATGGGTTGATTTCTGCACGTAGAAGCAAAAGGC [CAGATGGATGT T23A A40G] | 0.0214
GAGACCGCAACTGAAAAGTTGTATCAAAATGGAGGGTTGAATTTCTGCACGTAGAAGCAAAAGGC [TCAATGGAGTG T23A] | 0.00168
GAGACCGCAACTGAAAAGTTGTATAGAAATGGATGGGTTAATTTCTGCACGTAGAAGCAAAAGGC [TAGATGGATGT T23A] | 0.00257
GAGACCGCAACTGAAAAGTTGTATCAAAAGGATGGGTTGAATTTCTGCACGTAGAAGCAAAAGGC [TCAAGGATGTG T23A] | 0.00271
GAGACCGCAACTGAAAAGTTGTTACAGAAATATGGGTTGAATTTCTGCACGTAGAAGCAAAAGGC [ACAGATATGTG] | 0.000749
GAGACCGCAACTGAAAAGTTGTATCAAAATGGTGGGTTGAATTTCTGCACGTAGAAGCAAAAGGC [TCAATGGTGTG T23A] | 0.00318
GAGACCGCAACTGAAAAGTTGTTACAGAAAGGATGGTTGAATTTCTGCACGTAGAAGCAAAAGGC [ACAGAGGATTG] | 0.0039
GAGACCGCAACTGAAAAGTTGTTTCAGAAATGGAGGGTTGATTTCTGCACGTAGAAGCAAAAGGC [TCAGATGGAGT A40G] | 0.00532
GAGACCGCAACTGAAAAGTTGTTTAGAAATGGATGGTTGAATTTCTGCACGTAGAAGCAAAAGGC [TAGATGGATTG] | 0.00552
GAGACCGCAACTGAAAAGTTGTTTCAAAATGGATGGTTGAATTTCTGCACGTAGAAGCAAAAGGC [TCAATGGATTG] | 0.0203
GAGACCGCAACTGAAAAGTTGTATCAGAAAGGTGGGTTGAATTTCTGCACGTAGAAGCAAAAGGC [TCAGAGGTGTG T23A] | 0.0038
GAGACCGCAACTGAAAAGTTGTTTCAGAAAGGTGGGTTGAATTTCTGCACGTAGAAGCAAAAGGC [TCAGAGGTGTG] | 0.00137
GAGACCGCAACTGAAAAGTTGTTTAGAAATGGTGGGTTGAATTTCTGCACGTAGAAGCAAAAGGC [TAGATGGTGTG] | 0.0039
GAGACCGCAACTGAAAAGTTGTTACAGAAATGATGGGTTAATTTCTGCACGTAGAAGCAAAAGGC [ACAGATGATGT] | 0.00327
GAGACCGCAACTGAAAAGTTGTATCAGAAAGATGGGTTGAATTTCTGCACGTAGAAGCAAAAGGC [TCAGAGATGTG T23A] | 0.00422
GAGACCGCAACTGAAAAGTTGTATCAGAAAGGATGGGTTAATTTCTGCACGTAGAAGCAAAAGGC [TCAGAGGATGT T23A] | 0.00218

Variant | fraction ligated
GAGACCGCAACTGAAAAGTTGTATCAGAAATGATGGGTTAATTTCTGCACGTAGAAGCAAAAGGC [TCAGATGATGT T23A] | 0.00365
GAGACCGCAACTGAAAAGTTGTTTCAGAAATGGATGGGTTATTTCTGCACGTAGAAGCAAAAGGC [TCAGATGGAGT G35T T38G A40T] | 0.00171
GAGACCGCAACTGAAAAGTTGTTTCAAAATGGATGGGTTGATTTCTGCACGTAGAAGCAAAAGGC [TCAATGGATGT A40G] | 0.0177
GAGACCGCAACTGAAAAGTTGTTTCAAAATGGAGGGTTGAATTTCTGCACGTAGAAGCAAAAGGC [TCAATGGAGTG] | 0.00287
GAGACCGCAACTGAAAAGTTGTTAAGAAATGGATGGTTGAATTTCTGCACGTAGAAGCAAAAGGC [AAGATGGATTG] | 0.00494
GAGACCGCAACTGAAAAGTTGTTTCAAAATGGATGGGTTAATTTCTGCACGTAGAAGCAAAAGGC [TCAATGGATGT] | 0.00761
GAGACCGCAACTGAAAAGTTGTTACAAAAGGATGGGTTGAATTTCTGCACGTAGAAGCAAAAGGC [ACAAGGATGTG] | 0.00477
GAGACCGCAACTGAAAAGTTGTTTCAAAAGGATGGGTTGAATTTCTGCACGTAGAAGCAAAAGGC [TCAAGGATGTG] | 0.00272
GAGACCGCAACTGAAAAGTTGTTTCAGAAAGGATGGGTTAATTTCTGCACGTAGAAGCAAAAGGC [TCAGAGGATGT] | 0.00375
GAGACCGCAACTGAAAAGTTGTTTCAGAAATGGATGGGTTGTTTCTGCACGTAGAAGCAAAAGGC [TCAGATGGAGT G35T T38G A40T A41G] | 0.000378
GAGACCGCAACTGAAAAGTTGTTACAGAAATGGAGGGTTAATTTCTGCACGTAGAAGCAAAAGGC [ACAGATGGAGT] | 0.00252
GAGACCGCAACTGAAAAGTTGTTTCAAAATGATGGGTTGAATTTCTGCACGTAGAAGCAAAAGGC [TCAATGATGTG] | 0.00347
GAGACCGCAACTGAAAAGTTGTTACAGAAATGGATGGGTTATTTCTGCACGTAGAAGCAAAAGGC [ACAGATGGAGT G35T T38G A40T] | 0.00236
GAGACCGCAACTGAAAAGTTGTTTCAAAATGGTGGGTTGAATTTCTGCACGTAGAAGCAAAAGGC [TCAATGGTGTG] | 0.00313
GAGACCGCAACTGAAAAGTTGTTTCAGAAATGGAGGGTTAATTTCTGCACGTAGAAGCAAAAGGC [TCAGATGGAGT] | 0.00402
GAGACCGCAACTGAAAAGTTGTTACAGAAAGGATGGGTTGATTTCTGCACGTAGAAGCAAAAGGC [ACAGAGGATGT A40G] | 0.00295
GAGACCGCAACTGAAAAGTTGTATCAGAAAGGAGGGTTGAATTTCTGCACGTAGAAGCAAAAGGC [TCAGAGGAGTG T23A] | 0
GAGACCGCAACTGAAAAGTTGTTACAGAAAGGAGGGTTGAATTTCTGCACGTAGAAGCAAAAGGC [ACAGAGGAGTG] | 0.00131
GAGACCGCAACTGAAAAGTTGTATCAAAATGGATGGTTGAATTTCTGCACGTAGAAGCAAAAGGC [TCAATGGATTG T23A] | 0.0162
GAGACCGCAACTGAAAAGTTGTATAGAAATGGATGGGTTGATTTCTGCACGTAGAAGCAAAAGGC [TAGATGGATGT T23A A40G] | 0.00768
GAGACCGCAACTGAAAAGTTGTACAGAAATGGATGGTTGAATTTCTGCACGTAGAAGCAAAAGGC [CAGATGGATTG T23A] | 0.00704
